One assay has as its target T1, bovine serum albumin (bovine, UniProt P02769 25-607).
T1 construct: also called BSA
Kind of assay: ELISA, protein coated at 10 ug/ml. (In general: In an ELISA, binding on a coated surface is turned into a signal by an enzyme label.)

The target of another assay is lysozyme (Gallus gallus (Chicken), UniProt P00698 19-147). Put plainly: ELISA, protein coated at 10 ug/ml.
Assay [1] addresses T2, anthrax edema factor (EF) (Bacillus anthracis, UniProt P40136 34-800).
T2 sequence: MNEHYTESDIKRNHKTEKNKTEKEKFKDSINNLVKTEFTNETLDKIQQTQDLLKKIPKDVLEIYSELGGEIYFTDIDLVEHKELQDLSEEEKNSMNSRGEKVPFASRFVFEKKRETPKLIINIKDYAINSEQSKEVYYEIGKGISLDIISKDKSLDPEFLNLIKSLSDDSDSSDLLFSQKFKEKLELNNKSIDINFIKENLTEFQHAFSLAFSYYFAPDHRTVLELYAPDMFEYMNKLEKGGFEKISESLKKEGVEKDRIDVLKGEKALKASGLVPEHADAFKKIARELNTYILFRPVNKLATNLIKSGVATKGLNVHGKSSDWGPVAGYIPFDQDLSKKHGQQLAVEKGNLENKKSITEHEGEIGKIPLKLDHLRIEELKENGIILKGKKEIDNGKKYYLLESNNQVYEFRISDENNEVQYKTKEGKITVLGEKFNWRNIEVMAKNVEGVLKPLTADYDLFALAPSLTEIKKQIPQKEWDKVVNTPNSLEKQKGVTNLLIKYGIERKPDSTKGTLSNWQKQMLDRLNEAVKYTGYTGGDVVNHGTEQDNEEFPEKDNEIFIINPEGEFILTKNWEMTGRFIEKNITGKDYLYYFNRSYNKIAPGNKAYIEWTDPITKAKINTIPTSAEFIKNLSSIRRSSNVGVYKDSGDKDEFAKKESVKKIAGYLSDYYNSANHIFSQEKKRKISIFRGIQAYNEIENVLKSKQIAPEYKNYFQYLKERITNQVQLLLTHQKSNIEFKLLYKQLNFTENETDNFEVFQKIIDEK

Assay [2] has as its target T2, anthrax edema factor (EF). Kind of assay: ELISA, EF coated at 5 ug/ml.
Assay [3] has as its target T2, anthrax edema factor (EF). Kind of assay: cell-based or functional assay.
Assay [4] has as its target T2, anthrax edema factor (EF). Put plainly: SPR (BIAcore), IgG immobilized on CM5 chip, recombinant EF injected, 1:1 model.
The target in assay [5] is T3, anthrax lethal factor (LF) (Bacillus anthracis, UniProt P15917 34-809).
T3 sequence: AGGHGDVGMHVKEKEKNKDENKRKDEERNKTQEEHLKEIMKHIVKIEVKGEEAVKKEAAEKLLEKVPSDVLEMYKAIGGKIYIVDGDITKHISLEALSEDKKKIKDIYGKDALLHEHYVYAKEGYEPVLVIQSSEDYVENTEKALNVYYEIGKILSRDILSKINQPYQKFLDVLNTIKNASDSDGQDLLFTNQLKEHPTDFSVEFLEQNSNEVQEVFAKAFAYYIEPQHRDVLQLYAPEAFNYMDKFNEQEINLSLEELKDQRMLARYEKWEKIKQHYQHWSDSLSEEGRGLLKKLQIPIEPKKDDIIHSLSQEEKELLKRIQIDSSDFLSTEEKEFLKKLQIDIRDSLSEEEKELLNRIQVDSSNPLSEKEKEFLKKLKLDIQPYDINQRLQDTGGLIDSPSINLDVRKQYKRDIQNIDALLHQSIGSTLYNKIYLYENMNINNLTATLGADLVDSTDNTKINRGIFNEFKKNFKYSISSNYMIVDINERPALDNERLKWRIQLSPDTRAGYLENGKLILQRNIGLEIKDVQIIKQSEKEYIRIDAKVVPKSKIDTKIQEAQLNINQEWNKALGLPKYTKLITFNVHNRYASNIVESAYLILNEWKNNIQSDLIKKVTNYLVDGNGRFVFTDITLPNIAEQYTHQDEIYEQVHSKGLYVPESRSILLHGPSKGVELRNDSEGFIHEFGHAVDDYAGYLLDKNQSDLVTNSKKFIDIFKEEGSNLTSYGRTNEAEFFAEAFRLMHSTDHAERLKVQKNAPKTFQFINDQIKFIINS
Put plainly: cell-based or functional assay.

Assay [6] has as its target T2, anthrax edema factor (EF). Put plainly: Western blot of purified toxin proteins (SDS-PAGE) probed with the mAb. Background: A western blot detects proteins with antibodies after separation by electrophoresis.
Assay [7] addresses anthrax protective antigen (PA), purified (Bacillus anthracis, UniProt P13423 30-764). Kind of assay: Western blot of purified toxin proteins; PA as negative control.
Assay [8] has as its target T3, anthrax lethal factor (LF). Put plainly: SPR (BIAcore 3000), LF immobilized on CM3 chip, Fab injected.
For assay [9], the target named is T3, anthrax lethal factor (LF). Put plainly: ELISA, LF coated at 5 ug/ml.
The target of assay [10] is T2, anthrax edema factor (EF). Kind of assay: Western blot of purified toxin proteins (SDS-PAGE) probed with the mAb. The source holds these as a separate data set.

lysozyme, sequence (P00698 19-147 limits assumed): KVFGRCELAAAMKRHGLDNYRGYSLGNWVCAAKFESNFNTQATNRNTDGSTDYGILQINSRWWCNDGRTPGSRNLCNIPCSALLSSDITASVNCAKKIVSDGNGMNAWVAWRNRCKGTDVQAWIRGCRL
T1 sequence (P02769 25-607 limits assumed): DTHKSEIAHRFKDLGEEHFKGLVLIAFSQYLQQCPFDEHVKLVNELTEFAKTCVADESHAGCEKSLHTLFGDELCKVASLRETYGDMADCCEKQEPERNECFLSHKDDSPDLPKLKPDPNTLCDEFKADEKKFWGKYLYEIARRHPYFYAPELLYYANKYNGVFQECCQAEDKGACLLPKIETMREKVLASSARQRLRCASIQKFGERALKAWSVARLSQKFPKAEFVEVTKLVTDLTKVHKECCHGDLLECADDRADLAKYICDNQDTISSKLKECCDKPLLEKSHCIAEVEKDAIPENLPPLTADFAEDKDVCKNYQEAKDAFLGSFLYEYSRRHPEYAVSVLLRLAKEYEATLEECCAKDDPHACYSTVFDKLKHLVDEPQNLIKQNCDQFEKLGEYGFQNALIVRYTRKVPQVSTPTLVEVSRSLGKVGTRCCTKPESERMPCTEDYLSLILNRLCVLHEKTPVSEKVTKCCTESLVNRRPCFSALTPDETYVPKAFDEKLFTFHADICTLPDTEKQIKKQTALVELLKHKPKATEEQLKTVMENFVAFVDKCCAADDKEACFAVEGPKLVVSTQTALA
anthrax protective antigen (PA), purified, sequence (P13423 30-764 limits assumed): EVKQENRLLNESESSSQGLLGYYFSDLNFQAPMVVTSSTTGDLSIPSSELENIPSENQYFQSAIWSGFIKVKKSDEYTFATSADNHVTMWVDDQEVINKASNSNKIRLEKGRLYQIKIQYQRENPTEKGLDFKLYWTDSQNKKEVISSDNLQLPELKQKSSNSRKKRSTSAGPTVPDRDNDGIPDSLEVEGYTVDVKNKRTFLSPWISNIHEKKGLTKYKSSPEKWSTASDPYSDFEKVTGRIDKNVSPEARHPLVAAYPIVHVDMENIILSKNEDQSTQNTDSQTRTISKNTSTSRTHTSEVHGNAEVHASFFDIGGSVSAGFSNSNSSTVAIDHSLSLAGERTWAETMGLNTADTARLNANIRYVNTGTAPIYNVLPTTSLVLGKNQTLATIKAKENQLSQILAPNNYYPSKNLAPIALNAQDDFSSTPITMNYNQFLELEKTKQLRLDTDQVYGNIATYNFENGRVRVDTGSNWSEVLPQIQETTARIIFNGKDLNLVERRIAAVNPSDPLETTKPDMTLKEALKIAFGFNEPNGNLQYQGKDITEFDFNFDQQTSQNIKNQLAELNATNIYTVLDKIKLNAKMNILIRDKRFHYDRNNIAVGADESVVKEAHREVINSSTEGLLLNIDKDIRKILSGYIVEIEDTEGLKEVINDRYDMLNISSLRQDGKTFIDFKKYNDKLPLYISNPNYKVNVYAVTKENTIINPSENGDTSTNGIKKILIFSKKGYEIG

B1: anti-EF clone EF14H (antibody, V domains shown)
VH: VQLLEESGGGLVKPGGSLRLSCAASGFTFSNYSMNWVRQAPGKGLEWVGFIRTKAKGGTTEYAASVKGRFTISRDDSKSIAYLQMNSLKTEDTAVYYCTPAGIIIRLVTPIYYYYMDVWGKGTTVTVS
VL: AAELTQSPSSLSASVGDRVTITCRASQGIRNYLAWYQQKPGKVPKLLIYAASTLQSGVPSRFSGSGSGTDFTLTISSLQPEDVATYYCQKYSSAPFTFGPGTKVGIKR
On to B1, for which the binding result in the assay with bovine serum albumin and with lysozyme was “no binding” in each case. In addition, the “EC50 (read off the curve)” value in assay [1] was about 0.05 µg/mL.

B2: anti-EF clone EF15A (antibody, V domains shown)
VH: VQLLEESGGGVVQPGRSLRLSCTASGFTFSNYGMQWVRQAPGKRLEWVAFISYSGSNKQYADSVRGRFTISRDNSKNILYLQMNSLRSEDTAVYYCARDSHYLDYLPDAFDYWGQGTVVTVS
VL: ELVMTQSPSLLSASVGDRVTITCRASQGISNYLAWFQQKPGKAPKRLIFTAYRLESGVPSRFSGSMSGTEFTLTISSLEPEDFATYYCLQHSAYPPTFGQGTKLEIKR
Take B2: the binding result in the assay with bovine serum albumin is on record as “no binding”; with lysozyme, “no binding”; in assay [2], “binds”.

B3: anti-anthrax EF13D monoclonal antibody (IgG) (antibody, V domains shown)
VH: EVQLLESGAEVKKPGSSVKVSCKVSGGTFSSFGISWVRQAPGQGLEWMGLIIPILGTANYAQKFQGRLTITADESTSTVYMELSSLRSEDTAVYYCATDPYHNWGEWDLDYWGQGTLVTVS
VL: AAELTQSPSSLSASVGDRVSITCRASQSISNYLSWYQQKPGKAPQLLIYDASTLQSGVPSRFSGSGSGTDFTLTISSLQPEDFATYYCQCGYGTYPTFGGGTQVEIKR
Regarding B3, in the assay with bovine serum albumin, the binding result is “no binding”. Also, in the assay with lysozyme, the binding result was “no binding”. Besides, in assay [3], the “EC50 of inhibition of ET-mediated cAMP production in RAW264.7 cells” value came to 28 ng/mL. For the same molecule, in assay [4], the equilibrium dissociation constant (Kd) stood at 9.7 nM, the koff was 0.0004 s⁻¹ and the kon turned out to be 41200 M⁻¹ s⁻¹.

B4: anti-anthrax LF11H monoclonal antibody (IgG) (antibody, V domains shown)
VH: VQLLEQSGAEVKKPGESLKISCKGSGYSFTNYWIGWVRQMPGKGLEWMGIIYPDDSDTRYSPSFQGQVTISFDKSINTAYLQWSSLKASDTAIYYCARALWFRDWGKMDVWGKGTTVTVS
VL: ELQMTQSPSSLSASVGDRVTITCRASQGIRNDLGWYQQKPGKAPKLLIYAASSLQSGVPSRFSGSGSGTDFTLTISSLQPEDFATYYCLQDYTYPWTFGQGTKLEIKR
On to B4, for which the binding result (in the assay with bovine serum albumin; in the assay with lysozyme; in assay [6]; in [7]) was “no binding” in each case. The “EC50 of neutralization of LT toxicity, RAW264.7 macrophage viability (MTT)” value in assay [5] turned out to be 62600 ng/mL.

B5: anti-anthrax LF11H Fab (Fab, V domains shown)
VH: VQLLEQSGAEVKKPGESLKISCKGSGYSFTNYWIGWVRQMPGKGLEWMGIIYPDDSDTRYSPSFQGQVTISFDKSINTAYLQWSSLKASDTAIYYCARALWFRDWGKMDVWGKGTTVTVS
VL: ELQMTQSPSSLSASVGDRVTITCRASQGIRNDLGWYQQKPGKAPKLLIYAASSLQSGVPSRFSGSGSGTDFTLTISSLQPEDFATYYCLQDYTYPWTFGQGTKLEIKR
In assay [8], B5 had a Kd of 7.4 nM, a koff of 0.001 s⁻¹ and a kon of 130000 M⁻¹ s⁻¹.

B6: anti-LF clone LF9D (antibody, V domains shown)
VH: EVQLLESGGGLVKPGGSLRLSCAASGFTFSSYAMHWVRQTPEKGLEWVSTISSIGGSTWYSDSVKGRFTISRDNSKNTLFLHMKSLRAEDTAVYYCARDFFSQVGWSTPNNWFDPWGQGTLVTVS
VL: AAELTQSPSTLSASVGDRVTITCRASQGIATYLNWYQQIPGKAPKLLIYAASTLESGVPSRFSGSGSGAEFTLTISSLQPGDFATYYCQQFYSMPLTFGGGTKVEIKR
With B6, the binding result with bovine serum albumin is reported as “no binding”; in the assay with lysozyme, “no binding”; in assay [9] it was “binds”.

B7: anti-anthrax LF10E monoclonal antibody (IgG) (antibody, V domains shown)
VH: EVQLLESGGGLVKPGGSLRLTCAASGFTFSSYAMHWVRQAPEKGLEWVSSISGSGGGTWYADSVKGRFTISRDNSRNTLYLQLNSLRAEDTAVYYCARPKYTGYENPFDYWGQGTLVTVS
VL: ELQMTQSPSSLSASVGDRVTITCRASQDIRNYLAWYQQEPGKAPRLLIYYASKLQSGVPSRFSGRGSGTDYSLTISSLQPEDFATYYCQQYDSVPLTFGGGTKMEIKR
B7: the binding result (in [10]; with bovine serum albumin; with lysozyme; in assay [7]) was “no binding” each time. Further, the “EC50 of neutralization of LT toxicity, RAW264.7 macrophage viability (MTT)” value in assay [5] amounted to 15.6 ng/mL.

B8: anti-anthrax LF10E Fab (Fab, V domains shown)
VH: EVQLLESGGGLVKPGGSLRLTCAASGFTFSSYAMHWVRQAPEKGLEWVSSISGSGGGTWYADSVKGRFTISRDNSRNTLYLQLNSLRAEDTAVYYCARPKYTGYENPFDYWGQGTLVTVS
VL: ELQMTQSPSSLSASVGDRVTITCRASQDIRNYLAWYQQEPGKAPRLLIYYASKLQSGVPSRFSGRGSGTDYSLTISSLQPEDFATYYCQQYDSVPLTFGGGTKMEIKR
In assay [8], B8 had a Kd of 0.69 nM, a koff of 0.00019 s⁻¹ and a kon of 270000 M⁻¹ s⁻¹.

By EC50 (read off the curve) is commonly meant the concentration needed to bring the measured effect to its halfway point. Higher therefore signals a need for much substance. Broadly, the Kd is a measure of binding affinity in units of concentration. The koff is a measure of how fast the partners let go of each other. Broadly, the kon is the rate constant with which the complex forms.

The values above are taken from US20100119520A1 (US Dept. of Health and Human Services, published 2010).
